Measurements: patent US20230226096A1 (Orna Therapeutics, Inc., priority 2020, published 2023)

B1: Aichivirus KVGH (nucleic acid, listed as Aichivirus sp.)
DNA: TACTCCATTCAGCTTCTTCGGAACCTGTTCGGAGGAATTAAACGGGCACCCATACTCCCCCCCACCCCCCTTTTGTAACTAAGTATGTGTGCTCGTGACCTTGACTCCCACGGAACGGACCGATCCGTTGGTGAACAAACAGCTAGGTCCACATCCTCCTTTCCCCTGGGAGGGTCCCCGCCCTCCCACATCCCCCCCCCAGCCTGACGTGTCACAGGCTGTGTGAAGCCCCCGCGAAAGCTGCTCACGTGGCAATTGTGGGTCCCCCCTTCATCAAGACACCAGGTCTTTCCTCCTTAAGGCTAGCCCCGGCGTGTGAACTCACGTTGGGCAACTAGTGGTGTCACTGTGCGCTCCCAATCTCGGCCGCGGAGTGCTGTTCCCCAAGCCAAACCCCTGGCCCTTCACTATGTGCCTGGCAAGCACACCTGAGAAGGTGTTCCGCTGTGGCTGCCAGCCTGGTAACAGGTGCCCCAGTGTGCGTAACCTTCTTCCGTCTTCGGACGGTGGTGATTGGTTAAGATTTGGTGTAAGGTTCATGTGCCAACGCCCTGTGCGGGATGAAACCTCTACTGCCCTAGGAATGCCAGGCAGGTACCCCACCTTCGGGTGGGATCTGAGCCTGGGCTAATTGTCTACGGGTGGTTTCATTTCCAATTCTTTCATGTCGGAGTC
B2: Human enterovirus C105 (nucleic acid, listed as Enterovirus sp.)
DNA: CCCCTAGGATCCACTGGATGTCAGTACACTGGTATCGTGGTACCTTTGTACGCCTGTTTTATACCCCCTTCCCCGCAACTTTAGAAGCATCAAAAGCACCGCTCAATAGTCACCACACCCCCAGTGTGGTTTCGAGCAAGCACTTCTGTTTTCCCGGTTGCGTCCCATATGCTGTGCAAACGGCAAAAAGGGACAATATCGTTACCCGCTTGTATACTACGGGAAACCTAGTACCACCATTGATTGTGTTGAGAGTTGCGCTCATCACCTTTCCCCGGTGTAGCTCAGGCCGATGAGGCTCAGAATCCCCCACAGGTGACTGTGTCTGAGCCTGCGTTGGCGGCCTGCCCTCGCCTTATGGCGTGGGACGCTTGATACATGACATGGTGCGAAGAGTCTACTGTGCTATGCAAGAGTCCTCCGGCCCCTGAATGTGGCTAATCCTAACCACTGATCCCACGCACGCAAACCAGTGTGTAGTGGGTCGTAACGCGCAAGTCGGTGGCGGAACCAACTACTTTGGGTGACCGTGTTTCCTTTATTACTTATTGAATGTTTATGGTGACAATTGTTTGATTCAGTTGTTGCCATTCTCTACATTCATTTACCCAGCATCAAACCAATTGAACTGTTACA
B3: Picornavirales sp. isolate RtMruf-PicoV (nucleic acid)
DNA: TTTGCTCAGCGTAACTTCTCCGGGTTACGTGGAGACCAAAAGGCTACGGAGACTCGGGCTACGGCCCTGGAGCACCTAGGTGCTCCTAAAGACGTTAGAAGTTGTACAAACTCGCCCAATAGGGCCCCCCAACCAGGGGGGTAGCGGGCAAGCACTTCTGTTTCCCCGGTATGATCTCATAGGCTGTACCCACGGCTGAAAGAGAGATTATCGTTACCCGCCTCACTACTTCGAGAAGCCCAGTAATGGTTCATGAAGTTGATCTCGTTGACCCGGTGTTTCCCCCACACCAGAAACCTGTGATGGGGGTGGTCATCCCGGTCATGGCGACATGACGGACCTCCCCGCGCCGGCACAGGGCCTCTTCGGAGGACGAGTGACATGGATTCAACCGTGAAGAGCCTATTGAGCTAGTGTTGATTCCTCCGCCCCCGTGAATGCGGCTAATCCCAACTCCGGAGCAGGCGGGCCCAAACCAGGGTCTGGCCTGTCGTAACGCGAAAGTCTGGAGCGGAACCGACTACTTTCGGGAAGGCGTGTTTCCTTTTGTTCCTTTTATCAAGTTTTATGGTGACAACTCCTGGTAGACGTTTTATTGCGTTTATTGAGAGATTTCCAACAATTGAACAGACTAGAACCACTTGTTTTATCAAACCCTCACAGAATAAGATAACA
B4: Caprine Kobuvirus d50 (nucleic acid, listed as Kobuvirus sp.)
DNA: CCGGGCCACCGATACTTCCCTTCACTCCTTCGGGACTGTTGGGGAGGAACACAACAGGGCTCCCCTGTTTTCCCATTCCTTCCCCCTTTTCCCAACCCCAACCGCCGTATCTGGTGGCGGCAAGACACACGGGTCTTTCCCTCTAAAGCACAATTGTGTGTGTGTCCCAGGTCCTCCTGCGTACGGTGCGGGAGTGCTCCCACCCAACTGTTGTAAGCCTGTCCAACGCGTCGTCCTGGCAAGACTATGACGTCGCATGTTCCGCTGCGGATGCCGACCGGGTAACCGGTTCCCCAGTGTGTGTAGTGCGATCTTCCAGGTCCTCCTGGTTGGCGTTGTCCAGAAACTGCTTCAGGTAAGTGGGGTGTGCCCAATCCCTACAAAGGTTGATTCTTTCACCACCTTAGGAATGCTCCGGAGGTACCCCAGCAACAGCTGGGATCTGACCGGAGGCTAATTGTCTACGGGTGGTGTTTCCTTTTTCTTTTCACACAACTCTACTGCTGACAACTCACTGACTATCCACTTGCTCTCTTGTGCCTTTCTGCTCTGGTTCAAGTTCCTTGATTGTTTTTGACTGCTTTTCACTGCTTTTCTTCTCACAATCCTTGCTCAGTTCAAAGTC
B5: Niviventer confucianus picornavirus (nucleic acid)
DNA: CCCTTTCATAACCCCCCCCTTTTAACCCAACCCTTCGTAACCGTACGCTTCACTCGCCTTTGGGTATAGCGGCCCAATGTGCTGAAGAAAAGGATACGCTATAAGGGGCCAACGGGTGGTGGCCCTTAAGACCACCCAACCTAGAAGCTTGTACACTCGGGCAATAGTGAGGCCCACATCCAGTGGGTCAAGCCCAAAGCATTCTTGTTCCCCGGTATGATCTCATAAGCTGTACCCACGGCTGAAAGAGTGATTATCGTTATCCCACTCAGTACTTCGGAGAGCCTAGTACACCACTTGGAAATGGAAGTCTGTGATCCGGGGTTGACCCTGAACCCCAGAAACTCATGATGAGGCTAACCTTCCCGAACACGGCGACGTGTGGTTAGCCTGCGCTGGCATGAGGCCTCTTTGTAGGCAGACTGAAATGGAAGGGTGACGAAGAGCCGACTGAGCTACTGTTTTATTCCTCCGGCCCCCTGAATGCGGCTAATCCTAACTCCTGGTCCAGTACTTGTAACCCAACAGGTGGCTGGTCGTAATGCGTAAGCCGGGAGCGGAACCGACTACTTTGGGGCGTCCGTGTTTCTCAATATTATTCATTTCTAGCTTATGGTGACAATTTATGATTGCAGAGATTGTGCTGTATTTGTGTCTGAGAGAAGAAGTAACAAT
B6: Apodemus agrarius picornavirus strain Longquan-Aa118 (nucleic acid)
DNA: TTACTCAGCGTAACTACTCCGGGTTACGTGATGAAGAAGAGGCTACGGAGATTCTCGGGCTACGGCCCTGGAGCCACTCCGGCTCCTAAAGATTTAGAAGTTTGAGCACACCCGCCCACTAGGGCCCCCCATCCAGGGGGGCAACGGGCAAGCACTTCTGTTTCCCCGGTATGATCTGATAGGCTGTAACCACGGCTGAAACAGAGATTATCGTTATCCGCTTCACTACTTCGAGAAGCCTAGTAATGATGGGTGAAATTGAATCCGTTGATCCGGTGTCTCCCCCACACCAGAAACTCATGATGAGGGTTGCCATCCCGGCTACGGCGACGTAGCGGGCATCCCTGCGCTGGCATGAGGCCTCTTAGGAGGACGGATGATATGGATCTTGTCGTGAAGAGCCTATTGAGCTAGTGTCGACTCCTCCGCCCCCGTGAATGCGGCTAATCCTAACCCCGGAGCAGGTGGGTCCAATCCAGGGCCTGGCCTGTCGTAATGCGTAAGTCTGGGACGGAACCGACTACTTTCGGGAAGGCGTGTTTCCATTTGTTCATTATTTGTGTGTTTATGGTGACAACTCTGGGTAAACGTTCTATTGCGTTTATTGAGAGATTCCCAACAATTGAACAAACGAGAACTACCTGTTTTATTAAATTTACACAGAGAAGAATTACA
B7: Rhinolophus picornavirus strain Henan-Rf265 (nucleic acid)
DNA: CGGAACGTTGTATGCTCAGGGCGTAGGCACCACCCACGGGTGGTGCCTACACGTGTGGACTAAACCACACACTCTTTTCAGCACTTAGTGCTGCTATCTCTTTTTGTAACTTAGAAGTTTGTACACAATGCGTTAGGGCCACACATCCAGTGTGGTATCGCAAAGCACTTCTGTTTCCCCGGTGCTAGTAGGAGGGTGGCTGCTCCACGGCCACTTGCCGAACCCATCGTTACCCGACTCATTACTTCGCAAAGCCTAGTAACCCAGTTGAAGCAAGCCCGGCGTGTTCCGGTCAGGAAAAACCCCCCCTGGCCAGAAACATGTGATGAGGGTGGGCTATCCCCACTGGTGACAGTGAGCCCTCCCTGCGTTGGCACATGGCCCGATCTGGGCGTGGTTCTTGTGGATGCTGCCGAAGAGCCCCGTGAGCTAGTGTTTATACCGCCGGCCTCGTGAATGCGGCTAACCCTAACCCCGGAGCAGAGGCTACTGAAGCCACAGTAGTCGCTGTCGTAACGAGTAATTCTGGGATGGGACCGACTACTTTCGAGTGTCCGTGTTTCCTTTATTCTTTTATTGTTGTTTATGGTGACAAAC
B8: Bat picornavirus isolate BtRs-PicoV (nucleic acid)
DNA: TTTCAAAAGGCCCTGGGCATACGGCGTTATTCGTAACGTCGTATGTCCAGGGCGGTAGCATCAGGCCAAGGCCTGATGCTACCACGTGTGGACTAAACCACACACTCTTCTTGTGACACGTTGTGTCACCTATCCCTTTCTTGGTAACTTAGAAGCTTGTACACTTACGCACGTAGGTGCCCCACATCCAGTGGGGTTTGTGCAAAGCAATCTTGTTCCCCGGTAAACCCTGATAGGCTGTAACCACGGCCGAAACAAGGTTTGTCGTTACCCGACTCACTACTACACAAAGCCTAGTAAAGTTCAATGAAAGTGCGCAGCGTGATCCGGTCAAAACCCCCTTGACCAGAAACACATGATGAGGGTCACCAACCCCCACTGGCGACAGTGTGGTGTCCCTGCGTTGGCATGTGGCCTCGTAGAGGCGTTGCAATCTGGATTTGCTCCGAAGAGCCCCGTGTGCTAGTGTTTATACCTCCGGCCCCTTGAATGCGGCTAATCCTAACCCCCGAGCATGTACACACAAGCCAGTGTGTAGCATGTCGTAATGAGCAATTTGGGGATGGAACCGACTACTTTAGGGTGTCCGTGTTTCTCATTATTCTTTGTTTGATGTTTT

Tested on: HEK293 cells
Format: cell-based, human
Conditions: luminescence from secreted Gluc in supernatant 24 hours after transfection of HEK293 cells; circular RNA encoding Gluc with the named IRES (UTR truncated to 675 nt)

Compared with B1, B2 is lower in Expression: 1.72E+07 for the first, 5.49E+05 for the second.

Compared with B3, B4 is lower in Expression: 2.26E+08 for the first, 9.65E+07 for the second.

First: B5
Second: B6
The Expression of the first is lower: 6.10E+07 for the first, 1.90E+08 for the second.

Compared with B7, B8 is higher in Expression: 3.85E+05 for the first, 1.13E+06 for the second.
